Experimental data reported in the DeepSol protein solubility set.

Experiment: soluble on expression in E. coli; label from the status in PepcDB or PDB records
With “MSLKFFPTRTLLCLCIAAPCLPAIAQNDPIELPDIGTVAGSTLTIDQELIYGDAYMRMLRNNQPVINDPVLNEYIDNLGHRLVASANDVKTPFTFFMIRDRNINAFAFFGGYVALHSGLFLHAQSESELASVMAHEIAHVTQRHLARSMEEQARRSPATIAALAGSLLLAIAAPEAGIAAINATMAGSIQGQINYTRSNEKEADRFGIATLAKAGFDANAMPQFFTRLADEYRYASKPPPMLLTHPLPEDRITDSRERARQYPPLKLAPHLDYHLARARIIARYAGIDADAALDWFARSEKKIDATLQPSIQYGKALVYLDLKQFDKAEPLLTQLVKEQPDNHFYLDAISDLYIELKQADKAQSLLEKALKQTPNNSVLTINYANVLLKQDKFTDAIRILQRYTHDNPNDINGWQLLSEANSRLGNSAEDLAARGEIMALQANWNKAIQFYTQASQLVELGSLAQARYDARIDQLMVQRERFLSLQEGGSHHHHHH” the “soluble on expression in E. coli” value was “soluble”.
In the case of “MSLKFMYSALLGNPVEHSISDELFEYLNHNIGVLDEYKHKKILVDSVCLEDKIKHLINDPKCIGLNITLPYKREVMRYIDNLDRVAEITGSVNNIYKSGNIITGTNTDWKGIYNTLVFFNISHITKCCVLGTGGTARAAIFALQKLQISPTVVYREPISENTRSLIKSFPDLKYITYKELADQQILNDMEIIINTTPVGMINYEESLPINFDHLDNVNYKDKYFMDVVFNPLHTKLHEYFGKKGAKIIDGLWVLIFQGIEAFSLWSDKINDGKYFFSEGHHHHHH”, the “soluble on expression in E. coli” value is reported as “not soluble”.
In the case of “MSLKGQNQHSVLRNFPVLGRIRYISEKIGPELRQYFFANDNEGKPFSRSDYKNIVLAGKYKSRMTSFGTGKDYLEGFYIQNTMFPLQATELHIDHTEFISTFLYHIENERLFSREEYRKSAQVDPFFLTDEHAVVLGSNLKHPFKIKRLVGQSGMSYGALGKNAITALSMGLAKAGTWMNTGEGGLSEYHLKGNGDIIYQIGPGLFGVRDHDGNFNRDMFINLAEHNNVRAFEIKLAQGAKTRGGHMEGNKVTEEIARIRNVKPYETINSPNRFDFIKNPTDLLNFVNHLQSIGQKPVGFKIVVSKVEEIEALVKTMIEIDTYPSFITVDGGEGGTGATFQELEDGVGLPLFTALPIVSSMLEKYGIRNKVKIFASGKLVTPDKIAIALGLGADLVNIARGMMISVGCIMSQQCHLNTCPVGVATTDPKKEKGLIVDEKQYRVTNYVTSLHEGLFNIAAAVGVHSPTEITSDHIIYRQLDGTTTSIQDYKLKLISEGHHHHHH”, the “soluble on expression in E. coli” value is reported as “not soluble”.
For “MSLKHVAVYLRLSRGEDESELDNHKTRLLNRCELNNWSYELYKEIGSGSTIDDRPVMQKLLTDVEKNLYDAVLVVDLDRLSRGNGTDNDRILYSMKVSETLIVVESPYQVLDANNESDEEIILFKGFFARFEFKQINKRMREGKKLAQSRGQWVNSVTPYGYIVNKTTKKLTPSEEEAKVVIMIKDFFFEGKSTSDIAWELNKRKIKPRRATEWRSSSIANILQNEVYVGNIVYNKSVGNKKPSKSKTRVTTPYRRLPEEEWRRVYNAHQPLYSKEEFDRIKQYFECNVKSHKGSEVRTYALTGLCKTPDGKTMRVTQGKKGTDDDLYLFPKKNKHGDSSIYKGISYNVVYETLKEVILQVKDYLDSVLDQNENKDLVEELKEELMKKEDELETIQKAKNRIVQGFLIGLYDEQDSIELKVEKEKEIDEKEKEIEAIKMKIDNAKTVNNSIKKTKIERLLSDVQSAESEKEINRFYKTLIKEIIVDRTDENEAKIKVNFLEGHHHHHH”, the “soluble on expression in E. coli” value was “not soluble”.
In the case of “MSLKHYDLIIIGTGSGNSIPGPEFDDKSIAIVEKGAFGGTCLNVGCIPTKMYVYAADIAQEIQESARLGIDATVNSVDWPSIVSRVFDKRIDLIAQGGEAYRRGPETPNIDVYDMHASFVDSKTISTGIAGQEQLISGTDIVIATGSRPYIPEAIAESGARYYTNEDIMRLAQQPESLVIVGGGFIALEFAHVFEALGTKVTILNRSDVLLREADADISAKILELSKKRFDVRLSTAVTAVHNKADGGVKISTDTGDDIEADILLVATGRTPNGNQMNLDAAGIEMNGRSIKVDEFGRTSVEGVWALGDVSSPYKLKHVANAEMRAIKHNLANPNDLQKMPHDFVPSAVFTNPQISQVGMTEQEAREAGLDITVKIQNYSDVAYGWAMEDKDGFVKLIADKDTGKLVGAHIIGAQASTLIQQLITVMAFGIDAREAATKQYWIHPALPEVIENALLGLEFEGHHHHHH”, the “soluble on expression in E. coli” value is reported as “soluble”.
With “MSLKIGIDVGSTTAKLVAVDENDNLLFSKYERHNAKAKETILSFLKELLSEIGDKDISVRITGSIGMGISEKCSLPFVQEVVAAAKAIQKDYSHVTSMIDIGGEDAKVVFFNDAEATDLRMNGNCAGGTGAFIDQMAIILGVNIDELNQLAMNATQVYPIASRCGVFCKTDIQNLIAKNVSRENIAASIFRAVAVQTVVTLAHGCDITTPVLFCGGPLTFIPALRKAFIDYLSLDEKEIILPANGTLLPALGAALFHLDKEDYCKLSHLIDKEGHHHHHH” the “soluble on expression in E. coli” value was “soluble”.
